Experimental data taken from patent US20050058639A1 (AstraZeneca / MedImmune, published 2005).

T1: recombinant human MCP-2 (human, UniProt P80075 24-99)
T1 construct: also called rhMCP-2
T1 sequence (looked up): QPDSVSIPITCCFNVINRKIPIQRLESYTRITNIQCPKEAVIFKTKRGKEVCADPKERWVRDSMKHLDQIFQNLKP

T2: human GRO/MGSA (human, UniProt P09341 35-107)
T2 construct: also called hGRO/MGSA; GRO-alpha
T2 sequence (looked up): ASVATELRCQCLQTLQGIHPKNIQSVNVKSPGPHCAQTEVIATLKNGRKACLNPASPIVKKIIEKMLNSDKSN

T3: human MIP-1-alpha (human, UniProt P10147 24-92, limits assumed)
T3 construct: also called hMIP-1-alpha
T3 sequence (looked up): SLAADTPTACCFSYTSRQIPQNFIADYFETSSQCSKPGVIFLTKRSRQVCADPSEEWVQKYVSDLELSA

T4: human RANTES (human, UniProt P13501 24-91)
T4 construct: also called hRANTES
T4 sequence (looked up): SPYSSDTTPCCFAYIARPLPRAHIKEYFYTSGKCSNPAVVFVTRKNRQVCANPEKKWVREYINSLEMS


Experiments:
[1] = biological target: T5, human monocyte chemo-attractant protein-1 (MCP-1) (human, UniProt P13500 24-99); assay: ELISA, coated antigen; ELISA, purified clone 1:50 on coated hMCP-1 (2 ug/mL), cross-reactivity panel
T5 construct: 76-residue recombinant protein from E. coli, bought (PeproTech); also called hMCP-1(MCAF); human MCP-1
Description: (§1) Determining cross-reactivity of anti-MCP-1 antibodies with other chemokines. ELISA plates (Fisher Cat. No. 12-565-136) were coated with 50 μl/well of MCP-1, MCP-2, MCP-3, MCP-4, RANTES, GRO-alpha, MIP-1 alpha, eotaxin, rat MCP-1 and mouse JE (2 μg/ml) in coating buffer (0.1 M carbonate buffer, pH 9.6, NaHCO₃ 8.4 g/L, then incubated at 4° C. overnight. After incubation, the plates were washed with washing buffer (0.05% Tween 20 in PBS) three times. 200 μL/well blocking buffer (0.5% BSA, 0.1% Tween 20, 0.01% Thimerosal in 1×PBS) were added and the plates incubated at room temperature for 1 hour. After incubation, the plates were washed with washing buffer three times. 50 μL/well of hybridoma supernatants, and positive and negative controls (positive control was anti-MCP-1 antibody purchased from R&D Sciences, and negative control was an antibody to Keyhole Limpet Hemocyanin produced at Abgenix) were added and the plates incubated at room temperature for 2 hours. After incubation, the plates were washed three times with washing buffer. […] After incubation, the plates were washed three times with washing buffer and 100 μL/well of TMB (BioFX Lab. Cat. #TMSK-0 100-01) was added and the plates allowed to develop for about 10 minutes.

[2] = biological target: T5, human monocyte chemo-attractant …; assay: cell-based or functional assay
recombinant human MCP-2 = biological target: T1, recombinant human MCP-2; assay: ELISA, coated antigen
Description: as §1

human eotaxin = biological target: T6, human eotaxin (human, UniProt P51671 24-97); assay: ELISA, coated antigen
T6 construct: also called hEotaxin
Description: as §1

human GRO/MGSA = biological target: T2, human GRO/MGSA; assay: ELISA, coated antigen
Description: as §1

[3] = biological target: T7, recombinant mouse JE/MCP-1 (mouse, UniProt P10148 24-148); assay: ELISA, coated antigen
T7 construct: also called rmJE/MCP-1
Description: as §1

recombinant human MCP-3 = biological target: T8, recombinant human MCP-3 (human, UniProt P80098 24-99); assay: ELISA, coated antigen
T8 construct: also called rhMCP-3
Description: as §1

human MIP-1-alpha = biological target: T3, human MIP-1-alpha; assay: ELISA, coated antigen
Description: as §1

rat MCP-1 = rat MCP-1 (rat, UniProt P14844 24-148); assay: ELISA, coated antigen
Description: as §1

recombinant human MCP-4 = biological target: T9, recombinant human MCP-4 (human, UniProt Q99616 24-98, limits assumed); assay: ELISA, coated antigen
T9 construct: also called rhMCP-4
Description: as §1

human RANTES = biological target: T4, human RANTES; assay: ELISA, coated antigen
Description: as §1

[4] = biological target: T5, human monocyte chemo-attractant …; assay: Biacore, mAb immobilized, MCP-1 injected; Biacore, 25 C, native MCP-1 injected over immobilized mAb
Description: Determination of anti-MCP-1 antibody affinity using Biacore analysis. The antibody/MCP-1 interaction analysis was performed at 25° C. using two CM5 chips docked in Biacore 3000 optical biosensors. Individual flow cells on each chip were activated with a 7-minute injection of NHS/EDC, carbohydrazide was coupled through the NHS ester using a 7-minute injection, and the residual activated groups were blocked with a 7-minute injection of ethanolamine. The monosaccharide residues of each antibody were oxidized using 1 mM sodium metaperiodate in 100 mM sodium acetate, pH 5.5 at 4° C. for 30 minutes. The oxidized antibody was desalted into 100 mM sodium acetate, pH 5.0, to couple the antibody to the carbohydrazide-modified surface. The mAb surfaces were stabilized by reducing the hydrazone bond with 0.1 M sodium cyanoborohydride. The antigen/antibody interaction was tested by injecting 0, 0.049, 0.15, 0.4, 1.3, 4 and 12 nM of MCP-1 (Peprotech, N.J.) in running buffer (10 mM HEPES, 150 mM NaCl, 0.005% surfactant, 200 μg/ml BSA, pH 7.4). The surfaces were regenerated with a 12-second pulse of 15 mM H₃PO₄. The antigen/antibody interaction was tested by injecting duplicate antigen samples diluted in running buffer (10 mM HEPES, […], 0.005% surfactant, 200 μg/mL BSA, pH 7.4), in a 300-fold concentration range. The surfaces were regenerated with a 12-second pulse of 15 mM H₃PO₄. To determine the kinetics of each interaction, the data sets were fit globally to a 1:1 interaction model that included a parameter for mass transport.

[5] = biological target: T5, human monocyte chemo-attractant …; assay: ELISA, hybridoma supernatant on coated MCP-1; ELISA, hybridoma supernatant on plate-coated non-reduced MCP-1 (2 ug/mL)
Description: (§2) Selection of candidate antibodies for ELISA. After 14 days of culture, hybridoma supernatants were screened for MCP-1-specific monoclonal antibodies. The ELISA plates (Fisher, Cat. No. 12-565-136) were coated with 50 μl/well of MCP-1 (2 μg/mL) in Coating Buffer (0.1 M Carbonate Buffer, pH 9.6, NaHCO₃8.4 g/L), then incubated at 4° C. overnight. After incubation, the plates were washed with Washing Buffer (0.05% Tween 20 in PBS) three times. 200 μl/well Blocking Buffer (0.5% BSA, 0.1% Tween 20, 0.01% Thimerosal in 1× PBS) were added and the plates incubated at room temperature for 1 hour. After incubation, the plates were washed with Washing Buffer three times. 50 μL/well of hybridoma supernatants, and positive and negative controls were added and the plates incubated at room temperature for 2 hours.
(§3) The positive control used throughout was XMG2 MCP-1 Group 1, footpad N160-7 and the negative control was XMG2 KLH Group 1, footpad L627-6. After incubation, the plates were washed three times with Washing Buffer. […] In the secondary screen, three sets of samples (positives in first screening) were screened, one set for hIgG detection, one set for hKappa detection, and one set for hlambda detection. After incubation, the plates were washed three times with Washing Buffer. 100 μL/well of TMB (BioFX Lab. Cat. #TMSK-0100-01) were added and the plates allowed to develop for about 10 minutes (until negative control wells barely started to show color), then 50 μL/well stop solution (TMB Stop Solution (BioFX Lab. Cat. #STPR-0100-01) were added and the plates read on an ELISA plate reader at wavelength 450 nm. The OD readings from the positive wells are presented in Table 9.

[6] = biological target: T5, human monocyte chemo-attractant …; assay: ELISA, coated antigen
Description: as §1

[7] = biological target: T5, human monocyte chemo-attractant …; assay: ELISA, hybridoma supernatant on coated MCP-1
Description: as §2, §3

Sequence of rat MCP-1 (P14844 24-148 limits assumed): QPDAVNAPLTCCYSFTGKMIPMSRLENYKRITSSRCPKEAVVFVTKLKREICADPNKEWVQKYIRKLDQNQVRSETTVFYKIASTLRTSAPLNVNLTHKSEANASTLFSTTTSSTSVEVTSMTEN
T7 sequence (P10148 24-148 limits assumed): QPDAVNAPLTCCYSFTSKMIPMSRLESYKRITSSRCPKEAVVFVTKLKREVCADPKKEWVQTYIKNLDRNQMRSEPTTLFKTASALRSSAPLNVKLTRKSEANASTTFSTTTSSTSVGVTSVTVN
T6 sequence (P51671 24-97 limits assumed): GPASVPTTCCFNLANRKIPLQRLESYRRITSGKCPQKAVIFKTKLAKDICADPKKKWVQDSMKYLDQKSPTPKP
T5 sequence (P13500 24-99): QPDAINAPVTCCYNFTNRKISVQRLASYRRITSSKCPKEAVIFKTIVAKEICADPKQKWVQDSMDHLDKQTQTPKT
T8 sequence (P80098 24-99 limits assumed): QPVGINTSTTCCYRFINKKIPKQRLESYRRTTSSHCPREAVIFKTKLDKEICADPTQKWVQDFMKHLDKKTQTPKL
T9 sequence (Q99616 24-98 limits assumed): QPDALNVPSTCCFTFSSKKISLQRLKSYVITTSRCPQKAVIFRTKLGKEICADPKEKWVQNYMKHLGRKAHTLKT

Row | Binder | ELISA OD [1] [OD450] | IC50 Ca++ Flux [2] [µg/mL] | IC50 Chemotaxis [2] [µg/mL] | ELISA OD (recombinant human MCP-2) [OD450] | ELISA OD (human eotaxin) [OD450] | ELISA OD (human GRO/MGSA) [OD450] | ELISA OD [3] [OD450] | ELISA OD (recombinant human MCP-3) [OD450] | ELISA OD (human MIP-1-alpha) [OD450] | ELISA OD (rat MCP-1) [OD450] | ELISA OD (recombinant human MCP-4) [OD450] | ELISA OD (human RANTES) [OD450] | Kd [4] [pM] | ELISA OD-MCP-1 [5] [OD450] | ELISA OD [6] [OD450] | ELISA OD-MCP-1 [7] [OD450]
1 | anti-MCP-1 mAb 1.7.1 (antibody, human IgG2, kappa, V domains shown, also called 1.7.2) VH: QVQLVQSGAEVKKPGASVKVSCKVSGYTLTELSMHWVRQAPGKGLEWMGGFDPEDGETIYAQKFQGRVSMTEDTSTDTAYMELSSLRSEDTAVYFCATNEFWSGYFDYWGQGTLVTVSS VL: not shown | 1.17 | 0.11 | 0.35 | 0.044 | 0.04 | 0.041 | 0.041 | 0.053 | 0.04 | 0.042 | 0.041 | 0.039 | 4.9 | 3.52 |  | 
2 | anti-MCP-1 mAb 4.7.1 (antibody, V domains shown) VH: QVQLVQSGAEVKKPGASVKVSCKVSGYTLTELSMHWVRQAPGKGLEWMGGFDPEDGETIYAQKFQGRVTMTEDTSTDTAYMELSSLRSEDTAVYYCATDDFWSGYFDYWGQGTLVTVSS VL: not shown |  | 0.39 | 0.45 | 0.042 | 0.042 | 0.046 | 0.042 | 0.046 | 0.046 | 0.062 | 0.044 | 0.046 |  |  | 0.744 | 3.84
3 | anti-MCP-1 mAb 2.3.1 (antibody, V domains shown) VH: QVQLVQSGAEVKKPGASVKVSCKVSGYTLTELSMHWVRQAPGKGLEWMGGFDPEDDETIYAQKFQGRVTMTEDTSTHTAYMELSSLRSEDTAVYYCATHDFWSAYFYYWGQGTLVTVSS VL: not shown |  | 0.14 | 0.58 | 0.052 | 0.045 | 0.062 | 0.054 | 0.059 | 0.067 | 0.058 | 0.064 | 0.055 | 96 | 3.88 |  | 
4 | anti-MCP-1 mAb 4.6.1 (antibody, V domains shown) VH: QVQLVQSGAEVKKPGASVKVSCKVSGYTLTELSMHWVRQAPGKGLEWMGGFDPEDGETIYAQKFQGRVTMTEDTSTDTAYMELSSLRSEDTAVYYCATDDFWSGYFDYWGQGTLVTVSS VL: not shown |  | 0.31 | 0.4 | 0.047 | 0.049 | 0.046 | 0.049 | 0.05 | 0.055 | 0.05 | 0.047 | 0.053 |  |  | 0.686 | 3.51
5 | anti-MCP-1 mAb 4.8.1 (antibody, V domains shown) VH: QVQLVQSGAEVKKPGASVKVSCKVSGYTLTELSMHWVRQAPGKGLEWMGGFDPEDGETIYAQKFQGRVTMTEDTSTDTAYMELSSLRTEDTAVYYCTTDDFWSGYFDYWGQGTLVTVSS VL: not shown |  | 0.22 | 0.29 | 0.041 | 0.043 | 0.042 | 0.042 | 0.043 | 0.041 | 0.091 | 0.039 | 0.044 |  |  | 1.14 | 4
6 | anti-MCP-1 mAb 5.1 (antibody, V domains shown) VH: EQSGGGVVQPGRSLRLSCAASGFTFSSYGMHWVRQAPGKGLEWVAVIWYDGNNKYYADSVKGRFTISRDTSKNTLYLQMNSLRAEDTAVYYCARDSSSYYYYGMDVWGQGTTVTVSS VL: NFMLTQPHSVSESPGKTVTISCTRSSGSIASNYVQWFQQRPGSSPTTVIYEDDQRPSGVPDRFCGSIDSSSNSASLTISGLRTEDEADYYCQSYDSSNHVVFGGGTKLTVLG |  | 3.5 | 1.3 | 0.051 | 0.042 | 0.044 | 0.044 | 0.05 | 0.043 | 0.054 | 0.043 | 0.043 |  |  | 0.521 | 4
7 | anti-MCP-1 mAb 1.4.1 (antibody, V domains shown) VH: QSGPGLVKPSQTLSLTCAISGDSVSSNSAAWNWIRQSPSRGLEWLGRTYYRSKWYSDHAVSVRSRITIYPDTSKNQFSLQLNSVTPEDTAVYYCARDRISGTYVGMDVWGQGTTVTVSS VL: DIGMTQTPLSLSVTPGQPASISCKSSQSLLYSDGKTYLYWYLQKPGQPPQHLIYEVSNRFSGVPDRFSGSGSGTDFTLKISRVEADDVGVYYCMQTIHLPLTFGGGTKVEIQR |  | 0.11 | 0.51 | 0.046 | 0.043 | 0.044 | 0.042 | 0.049 | 0.041 | 0.05 | 0.045 | 0.046 |  |  | 0.738 | 4
